The values below come from publication PMC10208126 (mAbs, 2023).

For one experiment, the target named is T1, Human IL1RAPL1-Fc (human, UniProt Q9NZN1 19-357).
T1 sequence (looked up): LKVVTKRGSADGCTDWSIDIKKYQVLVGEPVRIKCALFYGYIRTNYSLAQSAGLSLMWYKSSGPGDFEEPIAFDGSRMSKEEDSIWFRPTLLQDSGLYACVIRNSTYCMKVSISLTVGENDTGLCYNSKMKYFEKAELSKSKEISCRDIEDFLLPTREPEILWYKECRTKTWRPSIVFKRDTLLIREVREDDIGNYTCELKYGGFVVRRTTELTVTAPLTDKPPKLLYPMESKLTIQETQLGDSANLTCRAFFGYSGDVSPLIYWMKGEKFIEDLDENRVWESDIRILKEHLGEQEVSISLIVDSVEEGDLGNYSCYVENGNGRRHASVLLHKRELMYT
As to the kind of experiment: ELISA. (In general: In an ELISA, binding on a coated surface is turned into a signal by an enzyme label.)

For another experiment, the target named is T2, Human IL-36R-Fc (human, UniProt Q9HB29 20-335).
T2 sequence (looked up): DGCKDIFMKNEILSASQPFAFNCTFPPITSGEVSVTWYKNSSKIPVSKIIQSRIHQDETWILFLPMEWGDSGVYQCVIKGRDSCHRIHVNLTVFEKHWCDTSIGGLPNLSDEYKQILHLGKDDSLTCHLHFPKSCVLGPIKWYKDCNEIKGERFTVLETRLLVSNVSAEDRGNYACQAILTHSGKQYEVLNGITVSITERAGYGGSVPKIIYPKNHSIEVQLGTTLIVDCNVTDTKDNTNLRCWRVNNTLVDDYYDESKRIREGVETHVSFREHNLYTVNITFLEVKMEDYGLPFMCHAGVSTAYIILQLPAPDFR
In words: ELISA.

B1: Recombinant full length human IL-38 (ligand, UniProt Q8WWZ1 1-152, looked up)
chain: MCSLPMARYYIIKYADQKALYTRDGQLLVGDPVADNCCAEKICILPNRGLARTKVPIFLGIQGGSRCLACVETEEGPSLQLEDVNIEELYKGGEEATRFTFFQSSSGSAFRLEAAAWPGWFLCGPAEPQQPVQLTKESEPSARTKFYFEQSW
In the case of B1, the binding result with Human IL1RAPL1-Fc and with Human IL-36R-Fc was “binds” throughout.
